Literature values in PMC2574613.

Target: glycoprotein Ibα (Homo sapiens) (UniProt P07359)
Sequence (P07359 17-652): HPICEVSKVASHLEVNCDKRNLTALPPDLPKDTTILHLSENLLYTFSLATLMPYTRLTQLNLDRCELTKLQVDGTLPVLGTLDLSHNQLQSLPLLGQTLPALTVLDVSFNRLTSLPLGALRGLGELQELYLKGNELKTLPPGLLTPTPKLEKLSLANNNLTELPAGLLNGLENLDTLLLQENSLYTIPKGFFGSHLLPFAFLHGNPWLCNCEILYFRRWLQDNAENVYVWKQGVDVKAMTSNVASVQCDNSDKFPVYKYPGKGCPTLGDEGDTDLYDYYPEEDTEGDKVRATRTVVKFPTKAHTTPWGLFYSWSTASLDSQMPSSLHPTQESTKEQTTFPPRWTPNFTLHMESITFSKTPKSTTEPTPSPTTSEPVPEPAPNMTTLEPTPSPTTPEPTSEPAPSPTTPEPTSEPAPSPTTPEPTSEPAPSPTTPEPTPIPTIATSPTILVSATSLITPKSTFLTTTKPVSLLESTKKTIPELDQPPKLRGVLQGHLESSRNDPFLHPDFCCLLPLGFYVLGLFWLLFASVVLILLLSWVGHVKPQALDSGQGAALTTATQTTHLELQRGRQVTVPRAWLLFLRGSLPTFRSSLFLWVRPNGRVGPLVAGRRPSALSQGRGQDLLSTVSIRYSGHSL

GspB N-terminal basic region, sequence (Q939N5 237-603): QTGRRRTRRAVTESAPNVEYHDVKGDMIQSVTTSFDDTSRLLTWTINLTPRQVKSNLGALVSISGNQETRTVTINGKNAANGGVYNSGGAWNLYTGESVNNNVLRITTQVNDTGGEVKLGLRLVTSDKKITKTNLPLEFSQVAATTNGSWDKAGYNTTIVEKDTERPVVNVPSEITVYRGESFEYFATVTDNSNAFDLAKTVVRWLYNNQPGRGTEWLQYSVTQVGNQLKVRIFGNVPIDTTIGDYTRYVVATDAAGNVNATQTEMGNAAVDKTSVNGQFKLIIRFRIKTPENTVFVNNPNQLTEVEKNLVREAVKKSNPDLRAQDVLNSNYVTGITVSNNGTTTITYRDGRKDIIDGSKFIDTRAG

GspB N-terminal basic region (from UniProt Q939N5)
Kd: 23.8 nM
